Reference: paper PMC2592692
Numbering of substitutions follows the chain as printed. Numbers in names are those of the source.

Columns and labels:
[1] = molecular target: microtubules (purified tubulin, polymerised in buffer); assay: TIRF of Eg5-GFP on immobilised GMPCPP microtubules; settings: reference: wild-type Eg5-GFP, Cdk1-treated; sites T937
[2] = molecular target: Alexa-568 labeled microtubules (paclitaxel-stabilised) (UniProt P02550)
[3] = molecular target: spindle microtubules in Xenopus egg extract (Xenopus laevis (endogenous in egg extract)); assay: fluorescence microscopy of fixed spindles (GFP intensity per TAMRA-tubulin intensity); endogenous Eg5 immunodepleted from Xenopus egg extract and replaced by recombinant Eg5-GFP constructs; spindle structures fixed after 45 min, spun onto coverslips; ratios normalised to 1 at 460 nM Eg5-GFP

UniProt P02550, sequence (P02550 whole entry, looked up): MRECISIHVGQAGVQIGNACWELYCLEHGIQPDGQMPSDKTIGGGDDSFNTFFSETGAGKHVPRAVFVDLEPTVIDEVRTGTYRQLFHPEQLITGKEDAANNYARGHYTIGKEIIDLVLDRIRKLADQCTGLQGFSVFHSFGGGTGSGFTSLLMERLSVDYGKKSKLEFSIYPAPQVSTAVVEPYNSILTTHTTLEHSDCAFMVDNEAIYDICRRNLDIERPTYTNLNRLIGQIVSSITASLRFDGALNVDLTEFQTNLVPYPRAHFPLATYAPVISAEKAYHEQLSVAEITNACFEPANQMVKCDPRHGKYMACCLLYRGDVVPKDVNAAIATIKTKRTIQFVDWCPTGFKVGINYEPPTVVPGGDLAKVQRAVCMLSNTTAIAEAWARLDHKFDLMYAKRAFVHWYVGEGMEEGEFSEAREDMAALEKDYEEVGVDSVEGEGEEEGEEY

Molecule: Eg5 1-1067 Eg5T937A-GFP, Cdk1-treated
- other: mean GFP intensity on microtubules at 15 nM Eg5 [1]: weaker; reference 1226±39

B1: Eg5 phosphorylated at threonine 937 by Cdk1/cyclin B in vitro (natural protein)
chain: MSSQNSFMASKKEDKGKNIQVVVRCRPFNQLERKASSHSVLECDSQRKEVYVRTGEVNDKLGKKTYTFDMVFGPAAKQIEVYRSVVCPILDEVIMGYNCTIFAYGQTGTGKTFTMEGERSSDEEFTWEQDPLAGIIPRTLHQIFEKLSENGTEFSVKVSLLEIYNEELFDLLSPSPDVGERLQMFDDPRNKRGVIIKGLEEISVHNKDEVYHILERGAARRKTASTLMNAYSSRSHSVFSVTIHMKETTVDGEELVKIGKLNLVDLAGSENIGRSGAVDKRAREAGNINQSLLTLGRVITALVERTPHIPYRESKLTRILQDSLGGRTKTSIIATVSPASINLEETVSTLDYANRAKSIMNKPEVNQKLTKKALIKEYTEEIERLKRELAAAREKNGVYLSSENYEQLQGKVLSQEEMITEYTEKITAMEEELKSISELFADNKKELEECTTILQCKEKELEETQNHLQESKEQLAQESFVVSAFETTEKKLHGTANKLLSTVRETTRDVSGLHEKLDRKKAVDQHNFQVHENFAEQMDRRFSVIQRTVDDYSVKQQGMLDFYTNSIDDLLGASSSRLSATASAVAKSFASVQETVTKQVSHSVEEILKQETLSSQAKGDLQQLMAAHRTGLEEALRSDLLPVVTAVLDLNSHLSHCLQNFLIVADKIDSHKEDMNSFFTEHSRSLHKLRLDSSSALSSIQSEYESLKEDIATAQSMHSEGVNNLISSLQNQLNLLGMETQQQFSGFLSKGGKLQKSVGSLQQDLDLVSSEAIECISSHHKKLAEQSQDVAVEIRQLAGSNMSTLEESSKQCEKLTSSINTISQESQQWCESAGQKIDSVLEEQVCYLHSSKKHLQNLHKGVEDSCGSSVVEITDRVNAQRQAEEKALTSLVEQVRDDQEMVGEQRLELQEQVQSGLNKVHSYLKEELRNDVPTGTTPQRRDYAYPSLLVKTKPRDVLLEQFRQQQQEYLESISSVISEAVEPPVEQDSLEDEPPVAVNDSVISERSCIDLSMTCQEKGGIRFFQQKKALRKEKENRGNTTLLERSKIMDEVDQALTKSKLPLRMQN
modifications: phosphothreonine at 937 (degree of phosphorylation 87.9% per polypeptide chain)
- velocity in microtubule gliding assay (surface-adsorbed motor, 21°C) [2]: 1.7 µm/min

B2: Eg5 (wild-type full-length Xenopus laevis Eg5), not phosphorylated (natural protein)
chain: B1 chain
- velocity in microtubule gliding assay (surface-adsorbed motor, 21°C) [2]: 1.8 µm/min

B3: Eg5_(T937A) (non-phosphorylatable mutant of full-length Xenopus laevis Eg5) (natural protein)
chain: B1 chain with T937A
- velocity in microtubule gliding assay relative to wild-type Eg5, with or without Cdk1/cyclin B [2]: 88%

B4: Eg5_(T937A)-GFP (non-phosphorylatable mutant of Xenopus laevis Eg5 with C-terminal GFP) (natural protein)
chain: B1 chain with T937A
- fold lower amount bound than wild-type Eg5-GFP, at endogenous concentration [3]: 20 fold
